Experimental data: the domain aggregation screens of Martell et al. (2025)

Experiment: soluble fraction after stress (log2 fold change); higher = more stays soluble; pooled small domains, quantitative proteomics
Settings: stress: pH 4
Method in brief: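 Pooled custom libraries of small protein domains were subjected to pH 4 and measured by high-throughput quantitative proteomics. The log2 fold change in soluble amount per domain is reported, higher values meaning more remained soluble. This is used as a measure of aggregation propensity.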

Row | Sequence | soluble fraction (log2)
1 | HMVTDTGEIEAIIDRVISENPDSVSDFKNGKERALKFLMGQAMKESKGKANPQIVNELLLKKL | 0.0343
2 | HMGSLPPPKDGTTIYVVKPGDSLWRISGKFFGNPLFWPRLWEINPNIDNPNKIYPGDVISLKP | 0.219
3 | HMTNISDYILEEYYKNVYPNDLNTKRIVIPNKYEEYAGKYTYITIARMVTYEHDAKKALKVLHQQAT | -0.346
4 | HMELLPFEFARANRVLLRVNESDLVVSPDANHSAVTEILRLNNNIETIKSVDAEAFDKILSSIYSG | -2
5 | HMKSTELSIIEALRVLGLKHGASQDSIKKSYRRLVKQHHPDLGGSADSFRKVNEAYQLLIMN | 0.0586
6 | HMRKYEAVPASVVPAQIQEYVAKSNFPNQYIRKIERNKYTWEIELSNGLEIKFDRQFNVIGFD | 0.338
7 | HMTPNRDDEHLQSLRDYYASNRRIPSLQRIAALLGFSSRSAAVKLMGRLADEGFVERTVDDDAWIPGSRFF | -0.194
8 | HMAGDVVVEVVGKVRDPQVVTLPKGSRVQDALEAAGGVKPGVNTTDQNLARLLVDGEQIRIGLSS | 0.0302
9 | HMLAYQRTYEKILEDLRNDVYPVNSLLPPEPKLEEIYHVSRTTVRRAIAQLADEGYVKVKQGYGTVVLKN | 0.22
10 | HMNDIDRFIEALIEQDTLPGTNSRINEDVISEMKMMTSVEDIKAYAIATVGLTGGQVNNALINSGL | -1.61
11 | HMKIYDQVVDRIKDRISKGDMPQGSALPPERQLIDELNVSRSSLREGFRILEMMGLIESIPGKGRFVRTSR | -0.619
12 | HMGVNEGVNKLFKTIQETPGKRMPYYALATDVPEKTIERWLKQLREEGKIEFKGSAKTGGYFVIDK | 0.22
13 | HMTSRWEIGYNVAKKYYDEHGNLDVERAVYDNFELKKWLNTQRYKNSAGTLAEKYKIKLDELGMNWER | -0.00494
14 | HMPARTANEEAIRKYLLNHDSITRKETQALLKTGQSAAGRILKEMVENGWLARIGNGRSTGYELR | 0.244
15 | HMYFGNSLFQARKRSGLSQEGVAEKLGVSRQTVSKWETGETVPDIYQSKKMARLYGVSLDEL | 0.217
16 | HMDAGLAEIIRSFEDNLGGFPPAAREDLLGWREIFTDDLILLAIKKAALAGVRKWSYVNGILKVWKNEGVR | -1.09
17 | HMQELNDQQRLAILNEWNNRATNPPSLLELVRVAFPDAEGADGRSWHGKKVKEFLSTRQIKARAS | -0.282
18 | HMTSLGLEGLVNTTAIATSDLRPSGWALAGERKIFVVSEGEFIDNGDKIRILTVDGNRIVVRKETNK | -0.189
19 | HMDNIEIGNRIREIRIKKNISVFELAYRTKTSQSHIYQIEGGSQNMSIELLFKIADTLETDPNTILGV | -2.25
20 | HMLEIDPPVDEISVSRKAFYEAAGYKVNPYTHIPPRYRKEFEEHSFVVMSWPRELPEETYRKFDRYLRDV | -0.253
21 | HMSTSLIEFTIDRNNSIANKMIMDANIPEDILVVMIKRNGDVFVPNGSTKILPGDILVLSGNKLKY | -0.785
22 | HMQVEMVLSQEAHEWLLQRGFIPEYGAREMDRVIAAHLKPLLMREILFGTLKAGGKVRVQVENGALKLQP | -1.74
23 | HMRLSAADLQSYLKGMDYPASRQDLIAHARGHNAPEEAVATLEQFSDRTYRSAADVSVEFGRE | 0.309
24 | HMVSVEELLSSLDPNEATVLKLLAERSSGVDELMERSGLDFSALSEAITNLELFGYIAREMDGVYSFS | -1.78
25 | HMLKQLGRQEGRQEGAVDALRTVLALQIEQRFGPLDPTVQALIVAADIDALQRALSRVAVVSDLGAVFPP | -0.862
26 | HMSVFTPLTRSELETFLAPYELGRLLDFQGIAAGSENTNYFISLEKGEYVLTLVERGPVAEMPFFIELLD | -1.49
27 | HMNNTIKFSVDENNSGKRLDVYLTENINHLTRSFLKKLIEKEQVKLNKKVLTSPATKVKTKDQITINIIE | -0.26
28 | HMDAIAYLGSRLKEIRLKSGLSLREIARQLDVSPSFISQIENGKSQPSVATLYAFAKLLNVPVDVLFQPS | -0.455

Row | Sequence | soluble fraction (log2)
29 | HMRIYTKDEYLAELSRYLHKLPQDDYESAMAYFREYFEEAGPENEAQAMRDLGTPKEAASEILQNLLH | -0.162
30 | HMVRSLESESVYDRQRAYEIAYQLRTEERPYSFIATQLNKAGLRPQKAARYEWYSVQELLRSA | ≥ 0.43
31 | HMHGYLSDPAARLIRARRKTLSIRITQEGNLEIRAPLGMPKGEIEAFLKEKAQWIETHRAKVLAEYA | -0.138
32 | HMELNKNDLKIIKNISHIYPYFTPVKILQLILSKKFKTIDYNKILKSTSILTTDRSHLYYILNN | 0.22
33 | HMGWTTPAGIAVGMDKSVLQDAYGKEDDTFQDKGILYYQYFVHPSRMSGLSFGIKNDKIVSITAYMD | -1.23
34 | HMQDPRITRTRGLILQAFDALLVEKGFHALSVQAIAGRAGINRATFYAHFADKYALLDTSIQE | 0.081
35 | HMSYSYIYNYALKVKMDISSTGGKKPYAYYYYDHSYKLAEEILSLSEETESIELQNKYDELKDFYENP | -1.04
36 | HMLLREKLESVLPFISVSALAKTYFKRSPQWFYQRLNGSIVNGKPIRFNDAELKTLAGALTDIGKKISQAA | 0.157
37 | HMDDPTVILFDPKNGQRKIVKWKAGLTLYSARRSAGISSAAEATIQRAGKSLSGRTATALEPGDVIRW | 0.203
38 | HMEFPYISGVDVGTISNKEFARFETTKASDIVIALDKSGIPFSARFGDSEIVLTYDGSYKEEVEEIIAKV | -0.115
39 | HMAEVDDESIKLYDGGYQSNTTKSRLNALLSEFGYDTEHVFQKQFEWFISIFDLTEKAMRTVPFSNGMRL | -0.257
40 | HMKRSFGSVRQLRSGNYQARYTGPDTVRHTSPVTYTSKMDAEAWLVDERRKISSGTWTPPAR | 0.251
41 | HMADGTSIYAEREVLYVTSPTANTAKVYNVSGALVRTMTLSAGQTVRTALPAGFYVVALGNGNTHKVIV | 0.0275
42 | HMSAVVAPLPGLIQNILVKVGDTVHAGQHVLTMEAMKMENEIQTNRDGIIKDIKVRIGDSVNEGDTLIIL | -0.311
43 | HMALENTDLYAHLRLSHTASVPEIQAALSARVKHMPLQTWLLARKWLLHPRLRERYDGMWSVRFGA | -0.136
44 | HMKEINFTIEESAKGRLDKVIAENVADLTRSQVQSLIKKGQILVNDAPTTNRYQVKPNDQVIIKLPDPV | 0.0442
45 | HMRDISTDTSAWTFQDIKRYYDPQDLLTEKQVGQALSLIKGRNLNPLLNEVYIVAYKKKNGGAEFSLIV | -0.286
46 | HMVTDSGEIEKLVDEVIDNNPDQVQQFREGKQQVLSYLVGQAMKLSRGKANPNQVNQFLRDKL | 0.152
47 | HMNSNKFANAAAVAVAEKPADSYNPLFIYGPSGVGKTHLLYAIANEIHKHHPDYNIVYIKGDQFTNELIN | 0.201
48 | HMGGLAEGTKITLQNTVNVRASMGEDAEKIGTAYAGEKVTVIMSYAEGWTKVTWNDKTGYIKTSLL | -1.04
49 | HMTNADRFIGEEAMVIKKIDDINNDGQVKIAGQVWSAVSEDKSPLEEGTIVKVIAIRGVKLVVEPVS | 0.0967
50 | HMPADHYEVLGIARDADAAEVKRAYRRLARESHPDANHGDSGAEVRFKAVSAAYEVLSDPERRARYDRFGH | -0.257
51 | HMFTRFTVAQDGWTIGGFTAKEMAVSTAKQHAVDTGKPVTVVAHVAGGGSREAIFNSDGTNDKIWN | 0.157
52 | HMKLTALWTANPKISAPIYSEPSTQSKTLGRIYQGASVKVYSFDPEWAYINSSGVVGYVLRRHLE | 0.326
53 | HMSKNYYEILGVTPDVELSQLKAVYRRLVRKYHPDINPDGELIFKDITEAYEVLSDEKQRKQYDMINGF | -0.362
54 | HMKGTLPEMITSREEVVLKFMVNGWDAKRIASELDISVLTVRKHIANIYEKLHVQSKAEIISMAHQQKWFN | -0.731
55 | HMDGEINPYTGREYVTNSVRMHPRRIGYVQVYSRKDHKWTDMTEWAFLGEQERKKVLLGKAYEPPVYL | 0.0599
